Reference: the supplement of paper PMC10567573

B1: FAM50A (parent)
chain: HIFPASRWEPYDPEKKWDKYTIR

Variants of: B1
Assay: protein stability index of a GFP-peptide fusion (GPS, HEK-293T) (PSI 1-6); higher = more stable
Details: c terminus: native
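Further: lentivirally expressed fusions sorted by FACS into six bins by GFP to DsRed ratio, PSI derived from sequencing read proportions per bin multiplied by bin number.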

Protein stability index: each site, then its substitutions
K19: P 2.3, I 2.22, A 2.18, N 2.52, M 1.9, H 2.03, T 3.02
P10: A 1.71, E 2.32, K 2.24, H 2.88, D 2.23, S 2.91, L 1.8, F 2.04
K16: T 1.81, Q 2.79, A 1.76, R 2.59, G 1.77, V 1.97, D 1.78, Y 1.66, I 1.54, L 2.63, W 1.92
E9: D 1.85, G 1.72, I 3.95, L 2.42, Y 1.51, R 2.43, T 1.87, P 2.57, H 1.88
D18: V 2.17, Y 2.39, Q 2, S 1.45, N 4.48, P 2.99
E14: S 2.65, P 2.2, C 2, Q 2.04, F 1.55, R 2.49, G 2.5
Y11: D 2.74, I 2.51, V 2.67, L 2.27, A 2.51
D12: W 1.8, K 2.73, L 1.83, M 2.6, G 2.16, C 1.89, A 2.5, S 2.49
P13: C 1.48, L 1.58, G 2.03, Y 2.13, A 2.44
R23: S 2.1, C 2.08, K 2.4, D 2.58, P 3.67, Y 2.1
H1: I 1.58, Q 2.5, A 1.75, Y 1.69, V 1.45, E 2.52, K 1.08, N 2.77
K15: Q 2.13, I 1.9, D 2.05, L 1.57, H 1.45, Y 2.12, V 2.1, C 3.43
I2: L 3.1, S 2.83, H 2.41, Q 3.11, A 2.71, T 2.38, Y 2.36, G 3.14, V 2.88, F 2.33, W 2.16, M 2.35
S6: V 1.95, A 2.66, Q 3.79, F 2.92
T21: R 2.38, H 2.2, F 2.06, A 2.08, L 2.32, K 1.93, G 2.38, S 1.89
W17: A 2.45, S 3, E 3.48, I 2.64, Y 2.29, G 2.43, H 2.42, L 2.37, T 2.25
A5: P 3.42, D 2.04, Q 3.48, C 1.73, H 1.8, T 2.06, E 1.96
W8: D 3.54, L 3.38, S 3.62, Y 2.5, A 3.29
I22: R 1.59, M 2.05, C 2.15, G 2.29, N 3.07
F3: T 3, H 1.96, S 2.79, K 2.47, N 3.25, G 4.42, Q 3.31
Y20: C 1.77, D 3.29, R 2.81, L 2.26, S 2.74, N 2.73, H 2.74
R7: V 2.48, T 2.66, H 2, P 2.01, D 3.29, K 2.1, L 1.21, A 2.34
P4: R 2.13, S 1.97, V 1.79, L 2.56, Q 1.77, H 2.36, E 2.45
